From patent US20240190985A1

Columns and labels:
[1] = target: SUMO-CD99 fusion protein (SUMO fused with the extracellular domain of CD99, residues 23-122) (human) (UniProt P14209); experiment: apparent affinity to the recombinant ECD of CD99; method not given, value compared with the bead-based values of FIG. 1F
[2] = target: CD99 endogenously expressed on cells (Jurkat, KOPT-K1) (UniProt P14209); experiment: cell binding; apparent KD; nM Fv; avid
[3] = target: CD99 endogenously expressed on cells (Jurkat, KOPT-K1) (UniProt P14209); experiment: cell binding; apparent KD; nM molecule; avid

Chain of CD99 endogenously expressed on cells (Jurkat, KOPT-K1) (P14209 23-185): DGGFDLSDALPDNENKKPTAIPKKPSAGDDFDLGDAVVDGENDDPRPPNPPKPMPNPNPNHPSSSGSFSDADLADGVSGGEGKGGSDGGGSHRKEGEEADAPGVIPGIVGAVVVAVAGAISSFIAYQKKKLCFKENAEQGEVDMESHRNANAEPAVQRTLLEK
Chain of SUMO-CD99 fusion protein (SUMO fused with the extracellular domain of CD99, residues 23-122) (human) (P14209 23-122): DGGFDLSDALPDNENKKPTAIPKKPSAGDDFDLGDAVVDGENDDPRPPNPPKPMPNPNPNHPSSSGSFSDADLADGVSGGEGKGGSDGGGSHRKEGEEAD

Kd [1] [nM]	Kd [2] [nM]	Kd [3] [nM]	Substance
226			anti-CD99 mouse IgM, HO36-1.1 (ab212605, Abcam) (antibody)
	5.2	2.6	bivalent SAV-10A1 Fab complex (A2D2 streptavidin with biotinylated 10A1 Fab) (from UniProt P22629 37-163; P22629 37-163)
	3.9	1.3	trivalent SAV-10A1 Fab complex (A3D1 streptavidin with biotinylated 10A1 Fab) (from UniProt P22629 37-163; P22629 37-163)
